{
  "source": "patent US20120252691",
  "about": "“MODIFIED NUCLEOTIDES METHODS AND KITS” (Pierce Biotechnology, Inc., published 2012)",
  "binders": {"B1": {"name": "Poly(A)25 RNA, biotin-PEG12 (ssRNA)", "RNA": "AAAAAAAAAAAAAAAAAAAAAAAAA"}},
  "biological_target": "PABPC1-GST (Poly(A) binding protein) (UniProt P11940 P11940:1-636)",
  "sequence (P11940 whole entry, one chain of several)": "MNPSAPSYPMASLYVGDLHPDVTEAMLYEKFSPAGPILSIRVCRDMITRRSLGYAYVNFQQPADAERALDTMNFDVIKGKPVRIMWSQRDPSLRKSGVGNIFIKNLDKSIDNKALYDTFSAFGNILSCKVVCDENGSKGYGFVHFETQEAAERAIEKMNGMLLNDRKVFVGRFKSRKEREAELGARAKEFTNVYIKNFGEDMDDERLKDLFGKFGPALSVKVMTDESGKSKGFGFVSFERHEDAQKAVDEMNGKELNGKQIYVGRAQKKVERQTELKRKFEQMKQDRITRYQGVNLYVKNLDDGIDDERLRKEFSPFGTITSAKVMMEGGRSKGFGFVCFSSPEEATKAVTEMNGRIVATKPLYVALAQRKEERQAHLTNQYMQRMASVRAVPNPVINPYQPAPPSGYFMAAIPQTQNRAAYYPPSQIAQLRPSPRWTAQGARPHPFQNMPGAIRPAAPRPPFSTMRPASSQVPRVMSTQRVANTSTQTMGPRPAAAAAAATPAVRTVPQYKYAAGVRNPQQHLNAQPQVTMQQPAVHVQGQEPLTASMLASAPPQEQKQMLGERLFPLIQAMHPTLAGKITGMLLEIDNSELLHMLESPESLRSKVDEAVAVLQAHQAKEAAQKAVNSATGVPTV",
  "test": "pulldown; 10 mM Tris pH 7.5, 2.5 mM MgCl2, 10 mM KCl, 15% glycerol, tRNA, 4 C; also with UV crosslinking (FIG. 17)",
  "conditions": "tags: GST; label: 3'-biotin-PEG12-alkane-cytidine",
  "method": "Poly(A)₂₅ RNA was labeled using biotin-PEG₁₂-alkane-3′5′-bisphosphate cytidine and T4 RNA ligase. The Poly(A) Binding Protein (PABP), which binds the poly(A) tracts of mRNA, was cloned into a vector containing a GST-tag and expressed in a human cell-free in vitro translation (IVT) system. The lysate was diluted 1:10 for use in the binding reaction. The labeled RNA (50 pmol) was incubated with streptavidin magnetic beads (0.5 mg) for thirty minutes in 20 mM Tris-HCl (7.5), 100 mM NaCl, 1 mM EDTA. After washing, the beads were then incubated with 2-3 μl of diluted IVT lysate cell lysate in Binding Buffer (10 mM Tris-HCl, pH 7.5, 2.5 mM MgCl₂, 10 mM KCl, 15% glycerol, 0.5% Tween-20, and 10 μg tRNA) for one hour at 4° C. An unrelated RNA was used as a negative control, and beads were incubated with lysate alone to assess background. […] After separation by electrophoresis, PABP was detected using PABP antibody.\nSynthetic RNA (50 pmol/reaction) was end-labeled using a twenty-fold excess of Biotin-PEG₁₂-Alkane-3′5′-Bisphosphate Cytidine with T4 RNA ligase. […] Normalized samples were separated by electrophoresis, transferred, and detected using PABPC1, GST (SNRPA1) antibodies (1:1000 dilution in TBST-0.5% BSA). […]",
  "data": [
    {"binder": "B1", "values": [
      {"measurement": "binding result", "result": "binds"}
    ]}
  ]
}
